Measurements reported in PMC12749690.

Legend:
[1] = molecular target: CtpA_(F105R) mutant (Helicobacter pylori G27); test: crystal structure; sitting-drop vapour diffusion; wild type: 100 mM bis-Tris-HCl pH 6.5, 100 mM magnesium chloride, 25% PEG 3350, 16 °C; F105R: Morpheus condition A8
[2] = molecular target: Recombinant HP1076 protein (Helicobacter pylori); test: MST; CtpA_(S300A) diluted from 165 μM to 5.04 nM, mixed 1:1 with 45 nM RED-NHS-labelled HP1076; Monolith NT.115, 70% excitation power, 40% MST power, 20 °C
[3] = molecular target: CtpA_(S300A/K325A/Q329A) triple mutant (CtpATM) (Helicobacter pylori G27); test: cryo-EM structure; 2 mg/ml protein on Quantifoil R1.2/1.3 grids, Titan Krios 300 kV
[4] = molecular target: CtpAΔN46 (residues 47-454), wild-type H. pylori CtpA (Helicobacter pylori G27); test: crystal structure; sitting-drop vapour diffusion; wild type: 100 mM bis-Tris-HCl pH 6.5, 100 mM magnesium chloride, 25% PEG 3350, 16 °C; F105R: Morpheus condition A8
[5] = molecular target: CtpAΔN46 (residues 47-454), wild-type H. pylori CtpA (Helicobacter pylori G27); test: AUC; sedimentation velocity, absorbance, 28,000 rpm, 16 °C, c(s) model in SEDFIT
[6] = molecular target: CtpAΔN46 (residues 47-454), wild-type H. pylori CtpA (Helicobacter pylori G27); test: cryo-EM structure; 2 mg/ml protein on Quantifoil R1.2/1.3 grids, Titan Krios 300 kV

Q: With CtpA_(F105R) mutant (enzyme) as the substance, how does the stoichiometry N [1] read?
A: 6

Q: How did the Kd [2] turn out when “CtpA_(S300A) (inactive mutant of CtpAΔN46) (enzyme)” was run?
A: 15.4 µM

Q: How did the stoichiometry N [3] turn out when “CtpA_(S300A/K325A/Q329A) triple mutant (CtpATM) (enzyme)” was run?
A: 6

Q: For “CtpAΔN46 (residues 47-454), wild-type H. pylori CtpA (enzyme)”, which stoichiometry N [4] is on record?
A: 6

Q: And the stoichiometry N [5]?
A: 6

Q: What about the stoichiometry N [6] of the same substance?
A: 6
